B1: R1463 (VHH)
VHH: QVQLVESGGGVVQPGGSLRLSCTCSRCTFNWDGMGWFRQAPGKGLEFVATISWSGQEPAYADSVKGRFTISRDNSKNTLYLQMTSLRAEDTAVYYCAAAQYTGASYSILRDQVGYDYWGQGTLVTVSS
notes: also called RX017 VHH-His标签; 对照
B2: R1464 (VHH, not shown: small tags and cut ends)
chain (part 1 of 3): HHHHHHQVQLVESGGGVVQPGGSLRLSCTCSRCTFNWDGMGWFRQAPGKGLEFVATISWSGQEPAYADSVKGRFTISRDNSKNTLYLQMTSLRAEDTAVYYCAAAQYTGASYSILRDQVGYDYWGQGTLVTVSS
chain (part 2 of 3): QVQLVESGGGVVQPGGSLRLSCTCSRCTFNWDGMGWFRQAPGKGLEFVATISWSGQEPAYADSVKGRFTISRDNSKNTLYLQMTSLRAEDTAVYYCAAAQYTGASYSILRDQVGYDYWGQGTLVTVSS
chain (part 3 of 3): QVQLVESGGGVVQPGGSLRLSCTCSRCTFNWDGMGWFRQAPGKGLEFVATISWSGQEPAYADSVKGRFTISRDNSKNTLYLQMTSLRAEDTAVYYCAAAQYTGASYSILRDQVGYDYWGQGTLVTVSS
notes: also called 人源化多价结合蛋白 R1464; His标签-VHH-Linker-VHH-Linker-VHH
B3: R1475 (VHH, not shown: small tags and cut ends)
VHH 1: QVQLVESGGGVVQPGGSLRLSCTCSRCTFNWDGMGWFRQAPGKGLEFVATISWSGQEPAYADSVKGRFTISRDNSKNTLYLQMTSLRAEDTAVYYCAAAQYTGASYSILRDQVGYDYWGQGTLVTVSS
VHH 2: QVQLVESGGGVVQPGGSLRLSCTCSRCTFNWDGMGWFRQAPGKGLEFVATISWSGQEPAYADSVKGRFTISRDNSKNTLYLQMTSLRAEDTAVYYCAAAQYTGASYSILRDQVGYDYWGQGTLVTVSS
notes: also called 人源化多价结合蛋白 R1475; VHH-Linker-VHH-His标签

The binders below were run against 野生株SARS-COV-2 RBD蛋白(Ag27) (SARS-COV-2 野生株, UniProt P0DTC2 319-541).
In the case of B1, the IC50 is reported as 0.0359 nM. B2 was tested, and the IC50 was 0.0272 nM. Work on B3 yielded an IC50 of 0.0206 nM.
